Laboratory results as given in patent publication US20250051437A1 (University of California, published 2025).

Molecular target: T1, human CDH17-mGFP fusion protein overexpressed on HEK293T cells (clone G11) (human, UniProt Q12864 23-832)
T1 construct: also called HEK293T CDH17mGFP Clone G11; HEK293T Human CDH17mGFP G11; not shown: mGFP fluorescent protein fused to CDH17
Assay: KinExA, cell-based, HEK293T overexpressing human CDH17-mGFP (FIG. 16)
Experimental: The cell-based antibody affinity (KD) of the anti-CDH17 antibodies was measured by KinExA 4000 (Sapidyne Instrument, Boise, Idaho). Briefly, HEK293T overexpressing CDH17-fluorescent protein fusion (i.e., human CDH17-mGFP, monkey CDH17-mGFP, mouse CDH17-mGFP or rat CDH17-mGFP) were detached with Versene and equilibrated with either 50 pM, 200 pM, 20 nM, or 50 nM antibody in 2% FBS/DMEM at 4° C. overnight. The cell concentration started at 5×10⁶ cells/mL or 1×10⁷ cells/mL and 2-fold serial dilutions were performed up to 10 points. The next day, the cells were centrifuged at 1500 rpm for 10 min and the supernatants were saved. […] In contrast, while the humanized anti-CDH17 antibody, 07-0653-h43, fails to bind mouse CDH17 protein, it binds rat CDH17 protein equally well as to human and monkey CDH17 protein such that its Kp is less than about 1 nM for human, monkey and rat CDH17 proteins with overlapping 95% confidence interval values.

Kd: < 1 nM
B1: humanized anti-CDH17 antibody 07-0663-h7 (antibody, human IgG1, kappa, V domains shown)
VH: QVQLVQSGAEVKKPGSSVKISCKVSGYTFTDHTIHWMRQAPGQGLEWIGYIFPRDDIVVYAQKFQGRATLTADKSTSTAYMELSSLRSEDTAVYYCARPPYYYSRNFYFDYWGQGTTLTVSS
VL: DIQMTQSPSSLSASVGDRVTITCRVSSIISSSKLHWYQQKPGKAPKPLIYGTSTLASGVPSRFSGSGSGTDYTLTISSLQPEDFATYYCQQWSNYPFTFGQGTKLEIKR
notes: Human IgG1 / kappa
